# Data published in PMC11367332, “Neutralizing IL-38 activates γδ T cell-dependent antitumor immunity and sensitizes for chemotherapy” (Journal for Immunotherapy of Cancer, 2024).
# B1: recombinant IL-38: recombinant murine IL-38 (AdipoGen) (protein)
# chain: MCSLPMARYYIIKDAHQKALYTRNGQLLLGDPDSDNYSPEKVCILPNRGLDRSKVPIFLGMQGGSCCLACVKTREGPLLQLEDVNIEDLYKGGEQTTRFTFFQRSLGSAFRLEAAACPGWFLCGPAEPQQPVQLTKESEPSTHTEFYFEMSR
# Legend:
# Format in all cases: cell-based, mouse
# splenic γδ T cells = experiment: γδ T cell / CD8+ T cell culture with recombinant IL-38; details: 100 ng/mL daily, day 5, cytometric bead array
# Procedure: γδ T cells and CD8+ T cells were isolated from murine spleens by fluorescence-activated cell sorting (FACS) and co-cultured at a ratio of 1:10. The cells were cultured in T-cell medium Roswell Park Memorial Institute (RPMI) 1640 with 5 mM glutamine, 100 U/mL penicillin, 100 µg/mL streptomycin, 10% heat-inactivated fetal calf serum (FCS), 1% non-essential and essential amino acids, 1% sodium pyruvate and 1% 4-(2-hydroxyethyl)-1-piperazineethanesulfonic acid (HEPES) followed by activation with mouse T-cell activator CD3/CD28 Dynabeads (Thermo Fisher Scientific), 10 ng/mL of recombinant murine (rm) IL-23 and rm IL-1β (both from Bio-Techne). Cells were supplemented with 10 ng/mL rm IL-2 (PrepoTech) at days 0, 2 and 5 and daily with 100 ng/mL rm IL-38 (AdipoGen) and 50 μM β-mercaptoethanol. Cells were cultured for up to 5 days. At the endpoint, supernatants were collected for cytokine determination and cell proliferation was analyzed by flow cytometry.
# To measure the cytokines in PyMT tumors and cell culture supernatants, Cytometric Bead Array Flex Sets (BD Biosciences) were used for murine IL-17A and IFN-γ. The samples were acquired via FACS and analyzed with FlowJo Software V.10 (Tree Star).
# γδ T cells = experiment: Xcl1 production by activated γδ T cells (ELISA); details: 100 ng/mL, 24 hours
# Procedure: γδ T cells isolated from murine spleen were cultured in T-cell medium, activated with mouse T-cell activator CD3/CD28 Dynabeads (Thermo Fisher Scientific), except for the negative control, and supplemented with 10 ng/mL rm IL-2 (PrepoTech), 100 ng/mL rm IL-38 (AdipoGen) and […] β-mercaptoethanol. Supernatants were collected 24 hours after seeding for the determination of Xcl1 levels.
# Xcl1 levels were determined from supernatants collected from γδ T-cell cultures using Mouse Xcl1/Lymphotactin DuoSet ELISA Kit (R&D Systems) according to the manufacturer’s instructions.
# cDC1 = cDC1 migration, Boyden chamber assay; details: supernatants of γδ T cells pretreated with IL-38, 2 hours
# Procedure: Boyden chamber assays were performed using a 96 well-plate with 4.26 mm transwell inserts with 5.0 µm pore polycarbonate membrane (Corning). Briefly, 1.4×10^4 DC-enriched murine splenocytes (EasySep Mouse Pan-DC Enrichment Kit II, STEMCELL Technologies) were suspended in serum-free RPMI 1640 medium and added to transwell inserts. Supernatants collected after 24 hours of γδ T cells stimulation (described above) were pre-incubated with either 15 µg/mL IgG isotype control (R&D Systems) or 15 µg/mL anti-Xcl1 (R&D Systems) and added to the bottom compartment. Cells were harvested 2 hours later and migrated and non-migrated cells were analyzed by FACS. The percentage of migrated cDC1 was determined by the ratio of migrated/non-migrated cells.
molecule,measurement,setting,value
B1,IFN-γ secretion in γδ T cell / CD8+ T cell co-culture,splenic γδ T cells,limited the secretion of IFN-γ
same,IL-17 production by splenic γδ T cells,splenic γδ T cells,effectively suppressed IL-17 production
same,Xcl1 levels on γδ TCR-dependent activation,γδ T cells,suppressed
same,cDC1 migration towards γδ T-cell supernatants,cDC1,reduced
